The values below come from article PMC10786891, “Massively parallel profiling of RNA-targeting CRISPR-Cas13d”.

Numbering of substitutions follows the chain as printed. Numbers in names are those of the source.

First the molecules themselves.
B1: target 3 G4C,U22A (mixed)
RNA 1: CACCCGUGCAAAAUUGCAGGGGUCUAAAACGACCUGAAUAUUUCAGAUCAAA
RNA 2: GGGAAUGGAUCCACAUCUACGAAUUCGUUAUUGAUCUGAAAUAUUCACGUCUGCAGAUCGGAAGAGCACACGU
B2: target 3 G3U,U8C (mixed)
RNA 1: B1 RNA 1
RNA 2: B1 RNA 2 with A30U, U44C, C48G, G49U
B3: target 3 G4U,A12U (mixed)
RNA 1: B1 RNA 1
RNA 2: B1 RNA 2 with A30U, A40U, C48U
B4: target 3 A5U,A18G (mixed)
RNA 1: B1 RNA 1
RNA 2: B1 RNA 2 with A30U, A34G, A47U, C48G
B5: target 3 insA 3' of 6,insU 3' of 1 (mixed)
RNA 1: B1 RNA 1
RNA 2: GGGAAUGGAUCCACAUCUACGAAUUCGUUUUUGAUCUGAAAUAUUCAAGGUCUUGCAGAUCGGAAGAGCACACGU
B6: target 3 insA 3' of 22,insU 3' of 5 (mixed)
RNA 1: B1 RNA 1
RNA 2: GGGAAUGGAUCCACAUCUACGAAUUCGUUUAUUGAUCUGAAAUAUUCAUGGUCUGCAGAUCGGAAGAGCACACGU
B7: target 3 C6G,U8A (mixed)
RNA 1: B1 RNA 1
RNA 2: B1 RNA 2 with A30U, U44A, C46G, C48G
B8: target 3 insC 3' of 9,insA 3' of 3 (mixed)
RNA 1: B1 RNA 1
RNA 2: B5 RNA 2 with U44C, C46U, A47C, U51A, C52U, U53C
B9: target 3 A5U,U22C (mixed)
RNA 1: B1 RNA 1
RNA 2: B1 RNA 2 with A30C, A47U, C48G
B10: target 3 G4A,A9G (mixed)
RNA 1: B1 RNA 1
RNA 2: B1 RNA 2 with A30U, A43G, C48A
B11: target 3 insU 3' of 13,insA 3' of 6 (mixed)
RNA 1: B1 RNA 1
RNA 2: GGGAAUGGAUCCACAUCUACGAAUUCGUUUUUGAUCUGAUAAUAUUCAAGGUCUGCAGAUCGGAAGAGCACACGU
B12: target 3 insU 3' of 6,insA 3' of 3 (mixed)
RNA 1: B1 RNA 1
RNA 2: B5 RNA 2 with A47U, U51A, C52U, U53C
B13: target 3 insA 3' of 15,insC 3' of 11 (mixed)
RNA 1: B1 RNA 1
RNA 2: B11 RNA 2 with G38A, A39G, U40A, U43C, A44U, U45A, C47U, A48C
B14: target 3 C1U,U7C (mixed)
RNA 1: B1 RNA 1
RNA 2: B1 RNA 2 with A30U, U45C, C48G, C51U
B15: target 3 insA 3' of 14,insU 3' of 4 (mixed)
RNA 1: B1 RNA 1
RNA 2: B11 RNA 2 with U40A, A49G, G50U
B16: target 3 A5C,U22C (mixed)
RNA 1: B1 RNA 1
RNA 2: B1 RNA 2 with A30C, A47C, C48G
B17: target 3 C6A,U8G (mixed)
RNA 1: B1 RNA 1
RNA 2: B1 RNA 2 with A30U, U44G, C46A, C48G
B18: target 3 G3U,A12G (mixed)
RNA 1: B1 RNA 1
RNA 2: B1 RNA 2 with A30U, A40G, C48G, G49U
B19: target 3 G19U,U20A (mixed)
RNA 1: B1 RNA 1
RNA 2: B1 RNA 2 with A30U, U32A, G33U, C48G
B20: target 3 insC 3' of 7,insU 3' of 3 (mixed)
RNA 1: B1 RNA 1
RNA 2: B5 RNA 2 with A47C, C52U, U53C
B21: target 3 U2C,G4C (mixed)
RNA 1: B1 RNA 1
RNA 2: B1 RNA 2 with A30U, U50C
B22: target 3 insU 3' of 5 (mixed)
RNA 1: B1 RNA 1
RNA 2: GGGAAUGGAUCCACAUCUACGAAUUCGUUUUUGAUCUGAAAUAUUCAUGGUCUGCAGAUCGGAAGAGCACACGU
B23: target 3 A5G,U8A (mixed)
RNA 1: B1 RNA 1
RNA 2: B1 RNA 2 with A30U, U44A, A47G, C48G
B24: target 3 insA 3' of 22,insU 3' of 3 (mixed)
RNA 1: B1 RNA 1
RNA 2: B6 RNA 2 with U49G, G51U
B25: target 3 G4C,C6A (mixed)
RNA 1: B1 RNA 1
RNA 2: B1 RNA 2 with A30U, C46A
B26: target 3 insA 3' of 8,insC 3' of 5 (mixed)
RNA 1: B1 RNA 1
RNA 2: B11 RNA 2 with U40A, A42U, U43A, A44U, U45A, A49C
B27: target 3 del3,del4 (mixed)
RNA 1: B1 RNA 1
RNA 2: GGGAAUGGAUCCACAUCUACGAAUUCGUUUUUGAUCUGAAAUAUUCAUCUGCAGAUCGGAAGAGCACACGU
B28: target 3 insU 3' of 5,insU 3' of 4 (mixed)
RNA 1: B1 RNA 1
RNA 2: B5 RNA 2 with A48U, G50U, U51G, C52U, U53C
B29: target 1 insC 3' of 14,insU 3' of 14 (mixed)
RNA 1: CACCCGUGCAAAAAUGCAGGGGUCUAAAACUGAGCGGAUAACCUCUCUAUGG
RNA 2: GGGAAUGGAUCCACAUCUACGAAUUCGUACCAUAGAGACUGGUUAUCCGCUCACCGAGAUCGGAAGAGCACACGU
B30: target 1 C21A,C22U (mixed)
RNA 1: B29 RNA 1
RNA 2: GGGAAUGGAUCCACAUCUACGAAUUCGUAUAAUAGAGAGGUUAUCCGCUCACCGAGAUCGGAAGAGCACACGU
B31: target 1 A9U,C22U (mixed)
RNA 1: B29 RNA 1
RNA 2: B30 RNA 2 with A31C, A43U

For the series, the target named is T1, EsCas13d, nuclease-dead (Eubacterium siraeum, UniProt B0MS50, R295A;H300A;R849A;H854A).
T1 sequence: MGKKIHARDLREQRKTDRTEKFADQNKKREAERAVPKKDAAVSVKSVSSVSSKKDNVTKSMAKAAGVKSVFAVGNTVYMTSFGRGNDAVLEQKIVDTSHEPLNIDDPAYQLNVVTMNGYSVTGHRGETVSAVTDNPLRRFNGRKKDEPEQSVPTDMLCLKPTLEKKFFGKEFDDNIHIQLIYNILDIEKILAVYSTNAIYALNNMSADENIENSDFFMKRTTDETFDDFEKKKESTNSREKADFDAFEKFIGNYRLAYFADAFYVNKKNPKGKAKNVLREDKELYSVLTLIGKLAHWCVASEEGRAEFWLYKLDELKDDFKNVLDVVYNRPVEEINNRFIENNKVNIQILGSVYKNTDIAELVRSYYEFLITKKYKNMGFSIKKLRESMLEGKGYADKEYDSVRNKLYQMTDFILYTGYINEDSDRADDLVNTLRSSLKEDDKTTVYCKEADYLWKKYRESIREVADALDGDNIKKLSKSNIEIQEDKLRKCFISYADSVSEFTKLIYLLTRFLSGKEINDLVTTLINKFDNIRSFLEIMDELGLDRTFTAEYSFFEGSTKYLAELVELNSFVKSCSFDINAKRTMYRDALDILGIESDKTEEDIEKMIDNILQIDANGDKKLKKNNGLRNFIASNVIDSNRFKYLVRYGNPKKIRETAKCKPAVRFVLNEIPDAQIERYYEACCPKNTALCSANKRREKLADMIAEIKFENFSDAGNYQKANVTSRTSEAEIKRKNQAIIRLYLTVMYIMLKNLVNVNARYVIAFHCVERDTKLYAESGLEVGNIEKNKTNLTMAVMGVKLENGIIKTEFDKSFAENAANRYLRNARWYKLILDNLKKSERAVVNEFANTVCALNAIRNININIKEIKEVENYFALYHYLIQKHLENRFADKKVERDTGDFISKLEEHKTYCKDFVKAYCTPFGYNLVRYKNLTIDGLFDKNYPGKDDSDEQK
Description: crRNA (strand 1, pre-loaded); Mg2+; 40 mM Tris-HCl pH 7.5, 150 mM NaCl, 6 mM MgCl2, 1 mM DTT, 0.1% Tween-20, 0.2 mg/ml BSA; 25 C; 10 min per concentration, then washed. The conditions noted are these: tags: His6-TwinStrep-SUMO cleaved; N-terminal SNAP kept (SNAP-Surface 488); label: 3' end held by stalled T7 RNA polymerase.
With B1, the affinity, expressed as Kd, was 10.7 ± 1 nM. Molecule B2 yielded a dissociation constant Kd of 103 ± 17.5 nM. In turn, B3 displayed a Kd of 52 ± 13.5 nM. Next, B4: 117 ± 25 nM; B5: 31.9 ± 5.8 nM; B6: 11.1 ± 1.15 nM. Next, B7: 81.5 ± 10 nM. With B8 the figure was 83.5 ± 14 nM. In turn, B9 gave a Kd of 70.5 ± 20 nM. Next, B10: 52.5 ± 7 nM; B11: 99 ± 25 nM. With B12 the figure was 11.2 ± 1.3 nM; with B13, roughly 90 nM.

On to B14, for which the affinity, expressed as Kd, was 58.5 ± 16 nM. Next, B15: 43.5 ± 14.5 nM; B16: 84 ± 31 nM; B17: 65 ± 7.5 nM.

As to B18, the dissociation constant Kd is 86 ± 15 nM. B19: the Kd worked out at 90 ± 27 nM.

The molecule B20 had a Kd of 49.5 ± 10 nM. Next, B21: 18.4 ± 2.75 nM. B22 had an equilibrium dissociation constant (Kd) of 6.55 ± 0.65 nM. With B23 the figure was 80.5 ± 15 nM; with B24, 23.1 ± 3.65 nM; with B25, 26.6 ± 1.85 nM. With B26 the figure was 51 ± 5 nM; with B27, 13.9 ± 1.4 nM; with B28, 2 ± 0.23 nM.

B29 showed a dissociation constant Kd of 50 ± 12 nM. Next, B30: 45 ± 7 nM; B31: 24 ± 4 nM.

Usually Kd stands for the free concentration of one partner at which half of the binding sites on the other are occupied at equilibrium, for simple one-to-one binding. A lower Kd goes with higher affinity.
